Publication PMC9433092, “Closely related type II-C Cas9 orthologs recognize diverse PAMs”

T1: NarCas9 (Neisseria arctica, UniProt A0A0J0YQ19)
T1 sequence: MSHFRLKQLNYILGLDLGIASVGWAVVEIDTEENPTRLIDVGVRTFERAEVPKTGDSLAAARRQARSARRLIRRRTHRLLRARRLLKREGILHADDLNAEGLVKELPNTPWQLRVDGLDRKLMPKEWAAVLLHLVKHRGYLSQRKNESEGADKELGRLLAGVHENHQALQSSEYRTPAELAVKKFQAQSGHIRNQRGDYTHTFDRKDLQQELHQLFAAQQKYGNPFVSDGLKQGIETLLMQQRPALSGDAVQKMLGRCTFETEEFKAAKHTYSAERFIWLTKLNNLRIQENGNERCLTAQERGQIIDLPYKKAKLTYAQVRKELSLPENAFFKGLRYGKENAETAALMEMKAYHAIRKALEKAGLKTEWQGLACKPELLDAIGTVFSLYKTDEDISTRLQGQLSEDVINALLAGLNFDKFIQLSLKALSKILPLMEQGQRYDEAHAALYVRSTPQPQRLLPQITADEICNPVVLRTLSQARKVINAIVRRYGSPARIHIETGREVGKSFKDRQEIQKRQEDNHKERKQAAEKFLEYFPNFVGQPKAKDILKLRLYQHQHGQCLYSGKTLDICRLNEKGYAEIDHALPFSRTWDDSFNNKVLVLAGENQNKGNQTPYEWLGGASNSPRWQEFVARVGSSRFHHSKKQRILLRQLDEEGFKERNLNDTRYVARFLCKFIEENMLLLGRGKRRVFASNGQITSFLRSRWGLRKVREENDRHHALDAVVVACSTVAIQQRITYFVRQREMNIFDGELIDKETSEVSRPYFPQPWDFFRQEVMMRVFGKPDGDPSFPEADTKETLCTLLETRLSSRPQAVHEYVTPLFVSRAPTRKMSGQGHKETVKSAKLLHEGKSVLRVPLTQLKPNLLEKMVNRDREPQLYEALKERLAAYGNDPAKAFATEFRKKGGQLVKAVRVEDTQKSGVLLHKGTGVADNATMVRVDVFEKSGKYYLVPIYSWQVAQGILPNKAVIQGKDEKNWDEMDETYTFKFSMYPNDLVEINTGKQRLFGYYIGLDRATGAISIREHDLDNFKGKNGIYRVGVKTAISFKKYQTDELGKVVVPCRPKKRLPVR

T2: Nsp2-SmuCas9 (synthetic)
T2 chain: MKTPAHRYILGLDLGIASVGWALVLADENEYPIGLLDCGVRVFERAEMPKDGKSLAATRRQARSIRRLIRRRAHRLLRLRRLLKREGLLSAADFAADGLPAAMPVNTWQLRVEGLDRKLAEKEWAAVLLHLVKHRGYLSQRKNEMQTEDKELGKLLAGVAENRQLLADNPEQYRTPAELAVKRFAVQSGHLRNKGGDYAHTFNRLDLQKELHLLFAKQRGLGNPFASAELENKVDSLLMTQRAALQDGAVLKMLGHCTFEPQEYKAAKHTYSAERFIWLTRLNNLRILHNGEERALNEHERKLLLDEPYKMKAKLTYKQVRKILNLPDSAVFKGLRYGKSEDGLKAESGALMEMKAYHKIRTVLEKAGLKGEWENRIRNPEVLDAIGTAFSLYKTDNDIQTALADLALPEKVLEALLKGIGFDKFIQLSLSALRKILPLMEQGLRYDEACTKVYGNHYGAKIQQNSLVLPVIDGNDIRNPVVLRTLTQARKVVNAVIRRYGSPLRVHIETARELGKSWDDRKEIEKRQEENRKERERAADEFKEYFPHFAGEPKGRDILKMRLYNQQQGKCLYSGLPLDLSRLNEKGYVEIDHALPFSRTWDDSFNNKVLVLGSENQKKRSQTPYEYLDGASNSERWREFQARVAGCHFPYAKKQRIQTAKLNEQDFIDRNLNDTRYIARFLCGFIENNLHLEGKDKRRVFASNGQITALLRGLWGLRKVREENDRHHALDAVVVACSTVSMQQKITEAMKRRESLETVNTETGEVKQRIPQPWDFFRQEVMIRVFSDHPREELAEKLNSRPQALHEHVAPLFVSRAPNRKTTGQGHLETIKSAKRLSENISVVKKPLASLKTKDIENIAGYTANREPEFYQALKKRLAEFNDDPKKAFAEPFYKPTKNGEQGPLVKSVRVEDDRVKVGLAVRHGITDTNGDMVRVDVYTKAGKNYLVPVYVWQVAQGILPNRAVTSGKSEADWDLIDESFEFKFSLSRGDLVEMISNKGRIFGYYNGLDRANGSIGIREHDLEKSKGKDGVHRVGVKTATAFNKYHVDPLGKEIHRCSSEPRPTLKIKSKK

T3: Nme2-SmuCas9 (synthetic)
T3 chain: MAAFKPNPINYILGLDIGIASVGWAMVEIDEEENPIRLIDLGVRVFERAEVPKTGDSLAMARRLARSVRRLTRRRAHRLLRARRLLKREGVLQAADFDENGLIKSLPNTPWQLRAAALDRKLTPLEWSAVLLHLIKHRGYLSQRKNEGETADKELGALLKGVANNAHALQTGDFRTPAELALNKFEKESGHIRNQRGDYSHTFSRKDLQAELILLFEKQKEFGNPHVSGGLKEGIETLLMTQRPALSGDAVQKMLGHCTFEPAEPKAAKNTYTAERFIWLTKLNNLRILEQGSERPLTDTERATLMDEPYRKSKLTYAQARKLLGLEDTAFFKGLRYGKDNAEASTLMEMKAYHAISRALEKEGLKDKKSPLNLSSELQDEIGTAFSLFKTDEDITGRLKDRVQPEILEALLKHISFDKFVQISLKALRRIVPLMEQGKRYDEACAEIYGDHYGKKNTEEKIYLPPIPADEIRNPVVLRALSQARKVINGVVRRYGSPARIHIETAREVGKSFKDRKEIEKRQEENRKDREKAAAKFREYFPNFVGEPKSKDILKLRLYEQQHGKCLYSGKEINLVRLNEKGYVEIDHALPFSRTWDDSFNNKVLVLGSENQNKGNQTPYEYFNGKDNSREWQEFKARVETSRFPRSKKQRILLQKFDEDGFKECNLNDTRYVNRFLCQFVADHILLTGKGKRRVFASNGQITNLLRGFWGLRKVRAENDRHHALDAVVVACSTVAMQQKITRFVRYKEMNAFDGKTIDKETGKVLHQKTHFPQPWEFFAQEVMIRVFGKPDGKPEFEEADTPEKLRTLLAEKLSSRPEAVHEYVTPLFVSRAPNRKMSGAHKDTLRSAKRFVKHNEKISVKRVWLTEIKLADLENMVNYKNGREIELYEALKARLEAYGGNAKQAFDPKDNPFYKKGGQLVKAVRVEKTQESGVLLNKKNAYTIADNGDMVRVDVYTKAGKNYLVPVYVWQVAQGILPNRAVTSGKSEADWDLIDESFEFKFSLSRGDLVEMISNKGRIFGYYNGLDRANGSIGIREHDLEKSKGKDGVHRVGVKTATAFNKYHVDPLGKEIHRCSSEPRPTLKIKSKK


Columns and labels:
Assay in all cases: HEK293T cells
Conditions in all cases: tags: NLS and HA tags, kept
NarCas9 = molecular target: T1, NarCas9
Nsp2-SmuCas9 = molecular target: T2, Nsp2-SmuCas9
Nme2-SmuCas9 = molecular target: T3, Nme2-SmuCas9

Binder | indel frequency (NarCas9) | indel frequency (Nsp2-SmuCas9) | indel frequency (Nme2-SmuCas9)
GRIN2B TS17 (mixed) RNA: GUGCAGUUAGGGAAUAAGCCCCAGUUGUAGCUCCCUUUCUCAUUUCGGAAACGAAAUGAGAACCGUUGCUACAAUAAGGCCGUCUGAAAAGAUGUGCCGCAACGCUCUGCCCCUUAAAGCUUCUGCUUUAAGGGGCAUCGUUUAUUUUUUU DNA 1: TGCAGTTAGGGAATAAGCCCCAGTGTCAAG DNA 2: CTTGACACTGGGGCTTATTCCCTAACTGCA | 7.65 % indels | 23.2 % indels | 
AAVS1 TS5 (mixed) RNA: GGUCUGAGGGUGGAGGGACUGGGUUGUAGCUCCCUUUCUCAUUUCGGAAACGAAAUGAGAACCGUUGCUACAAUAAGGCCGUCUGAAAAGAUGUGCCGCAACGCUCUGCCCCUUAAAGCUUCUGCUUUAAGGGGCAUCGUUUAUUUUUUU DNA 1: GGTCTGAGGGTGGAGGGACTGGGGGCCTGG DNA 2: CCAGGCCCCCAGTCCCTCCACCCTCAGACC | 13.2 % indels | 17.8 % indels | 14.5 % indels
AAVS1 TS3 (mixed) RNA: GUCUGACCUGCAUUCUCUCCCCUGUUGUAGCUCCCUUUCUCAUUUCGGAAACGAAAUGAGAACCGUUGCUACAAUAAGGCCGUCUGAAAAGAUGUGCCGCAACGCUCUGCCCCUUAAAGCUUCUGCUUUAAGGGGCAUCGUUUAUUUUUUU DNA 1: TCTGACCTGCATTCTCTCCCCTGGGCCTGT DNA 2: ACAGGCCCAGGGGAGAGAATGCAGGTCAGA | 9.89 % indels | 17.9 % indels | 
AAVS1 TS1 (mixed) RNA: GCAGCAUAGGGUGGCAAAGCCCAGUUGUAGCUCCCUUUCUCAUUUCGGAAACGAAAUGAGAACCGUUGCUACAAUAAGGCCGUCUGAAAAGAUGUGCCGCAACGCUCUGCCCCUUAAAGCUUCUGCUUUAAGGGGCAUCGUUUAUUUUUUU DNA 1: CAGCATAGGGTGGCAAAGCCCAGGGCCAGG DNA 2: CCTGGCCCTGGGCTTTGCCACCCTATGCTG | 10.9 % indels | 16.7 % indels | 
AAVS1 TS4 (mixed) RNA: GCUGUCCCCUCCACCCCACAGUGGUUGUAGCUCCCUUUCUCAUUUCGGAAACGAAAUGAGAACCGUUGCUACAAUAAGGCCGUCUGAAAAGAUGUGCCGCAACGCUCUGCCCCUUAAAGCUUCUGCUUUAAGGGGCAUCGUUUAUUUUUUU DNA 1: CTGTCCCCTCCACCCCACAGTGGGGCCACT DNA 2: AGTGGCCCCACTGTGGGGTGGAGGGGACAG | 5.75 % indels | 6.53 % indels | 
EMX1 TS13 (mixed) RNA: GGUGGUAGAGGGAGCAGUAUGAGUUGUAGCUCCCUUUCUCAUUUCGGAAACGAAAUGAGAACCGUUGCUACAAUAAGGCCGUCUGAAAAGAUGUGCCGCAACGCUCUGCCCCUUAAAGCUUCUGCUUUAAGGGGCAUCGUUUAUUUUUUU DNA 1: GGTGGTAGAGGGAGCAGTATGAGAGTCTGG DNA 2: CCAGACTCTCATACTGCTCCCTCTACCACC | 18.4 % indels | 35.6 % indels | 12.2 % indels
